{"source": "paper PMC6391409", "about": "“A role for Vibrio vulnificus PecS during hypoxia” (Scientific Reports, 2019)", "key": {"[1]": {"biological_target": "T1, PecS (VvPecS) (Vibrio vulnificus, UniProt A0A3Q0KXQ7)", "T1 construct": "gene VV2_0325; His6-tagged VvPecS (BJE04_RS19600; old locus tag VVA0819), dimer", "T1 sequence (A0A3Q0KXQ7 entry or part of it)": "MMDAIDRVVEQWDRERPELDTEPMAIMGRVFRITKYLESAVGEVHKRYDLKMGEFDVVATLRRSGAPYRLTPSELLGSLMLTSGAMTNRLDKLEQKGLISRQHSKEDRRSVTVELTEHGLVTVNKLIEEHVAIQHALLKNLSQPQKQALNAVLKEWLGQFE", "experiment": "EMSA: attenuation of purified VvPecS binding to pecS-pecM intergenic DNA (IC50 […]); supported by SYPRO Orange thermal shift (Tm […] to […] °C)"}, "[2]": {"biological_target": "T1, PecS (VvPecS)", "experiment": "EMSA: attenuation of purified VvPecS binding to pecS-pecM intergenic DNA (IC50 […]); supported by SYPRO Orange thermal shift (Tm […] to […] °C)", "remark": "listed apart in the source"}, "[3]": {"tested_on": "VvPecS (PecS) (Vibrio vulnificus YJ016)", "experiment": "EMSA", "conditions": "EMSA: 0.5 M Tris pH 8.0, 100 mM NaCl, 6% glycerol, 25 uM EDTA, 0.12% Brij-58, 50 ug BSA, 25 C, 20 min; footprint: 20 mM Tris pH 8.0, 50 mM NaCl, 5 mM MgCl2 …"}, "[4]": {"tested_on": "VvPecS (PecS) (Vibrio vulnificus YJ016)", "experiment": "EMSA", "conditions": "EMSA: 0.5 M Tris pH 8.0, 100 mM NaCl, 6% glycerol, 25 uM EDTA, 0.12% Brij-58, 50 ug BSA, 25 C, 20 min; footprint: 20 mM Tris pH 8.0, 50 mM NaCl, 5 mM MgCl2 …", "remark": "listed apart in the source"}}, "note": "Like-named read-outs stand apart in the source and are kept apart here."}
{"molecule": "O=c1[nH]c(=O)c2[nH]c(=O)[nH]c2[nH]1", "note": "[urate]", "values": [{"measurement": "Ki", "setting": "[1]", "value": "226 ± 29", "unit": "µM"}]}
{"molecule": "O=c1[nH]c(=O)c2[nH]cnc2[nH]1", "note": "[xanthine]", "values": [{"measurement": "Ki", "setting": "[2]", "value": "60 ± 5", "unit": "µM"}]}
{"molecule": "iNR (nsrR-nod intergenic DNA)", "values": [{"measurement": "Kd", "setting": "[3]", "value": 0.218, "unit": "µM"}]}
{"molecule": "iSM (pecS-pecM intergenic DNA)", "values": [{"measurement": "IC50", "setting": "[3]", "value": 366, "unit": "µM"}, {"measurement": "Kd", "setting": "[3]", "value": 0.0003, "unit": "µM"}, {"measurement": "IC50", "setting": "[4]", "value": 1500, "unit": "µM"}]}
